This is an account of results in patent US20110105733A1 (Ablynx, published 2011).

For assay [1], the target named is T1, human DLL4 (rhDLL4, R&D Systems Cat #1506-D4-050) (human, UniProt Q9NR61 27-529).
T1 construct: extracellular domain; Bought reagent
The assay can be described thus: ELISA: rhDLL4 coated at 5 ug/mL, Nanobody series, detection by mouse anti-Myc tag (9E10) and DAMPO, OD 490 nm. As for the experimental part: Two rounds of phage display selection were performed similarly as described above. Binding assays were performed. In short: Maxisorp plate was coated with 100 ul 5 ug/ml of rhDLL4 (R&D systems) in PBS O/N at 4° C. After washing the plate was blocked with 4% MPBS for 30 minutes hour on shaker. A concentration series of Nanobody (1-1000 nM) was added in 100 ul 2% Marvell/PBS and incubate for 1 hour on shaker. Nanobody was detected with 100 ul 1:5000 Mouse-anti-MycTag (9E10) in 2% Marvell/PBS and with 100 ul 1:5000 DAMPO in 2% Marvell/PBS for 1 hour on shaker. After washing PO was detected with 100 ul OPD and stopped with 50 ul H2SO4. Quantification was performed at 490 nm in a plate reader.
On the technique in general: ELISA stands for enzyme-linked immunosorbent assay.

Assay [2] addresses T2, recombinant human Notch-1/Fc Chimera (R&D Systems Cat No 3647-TK) (human, UniProt P46531 19-526).
T2 construct: Bought reagent; also called rhNotch-1/hFc; rhNotch-1; not shown: human Fc (hFc)
The assay can be described thus: ELISA: human Notch-1 coated at 2 ug/mL, Nanobody series 25 pM-2000 nM, detection by rabbit anti-VHH and DAMPO, OD 490 nm. As for the experimental part:
(§1) After washing, the plate was blocked using 4% Marvel skimmed milk in PBS for 30 minutes on shaker. A concentration series of the Nanobodies in Table B-5 (25 pM to 2000 nM) was added in 100 microliter 2% Marvell/PBS and incubated for 1 h on shaker. After washing the Nanobodies were detected with 100 microliter 1:2500 R-anti-VHH (1:2500) in 2% Marvell/PBS and 100 microliter 1:5000 DAMPO in 2% Marvell/PBS for 1 h on shaker. PO was detected with 100 microliter OPD and stopped with 50 microliter H2SO4. Quantification was performed at 490 nm in a plate reader.

A further assay has as its target T3, human Notch-3 (human, UniProt Q9UM47 40-467, limits assumed).
T3 construct: Construct not described
T3 sequence (looked up): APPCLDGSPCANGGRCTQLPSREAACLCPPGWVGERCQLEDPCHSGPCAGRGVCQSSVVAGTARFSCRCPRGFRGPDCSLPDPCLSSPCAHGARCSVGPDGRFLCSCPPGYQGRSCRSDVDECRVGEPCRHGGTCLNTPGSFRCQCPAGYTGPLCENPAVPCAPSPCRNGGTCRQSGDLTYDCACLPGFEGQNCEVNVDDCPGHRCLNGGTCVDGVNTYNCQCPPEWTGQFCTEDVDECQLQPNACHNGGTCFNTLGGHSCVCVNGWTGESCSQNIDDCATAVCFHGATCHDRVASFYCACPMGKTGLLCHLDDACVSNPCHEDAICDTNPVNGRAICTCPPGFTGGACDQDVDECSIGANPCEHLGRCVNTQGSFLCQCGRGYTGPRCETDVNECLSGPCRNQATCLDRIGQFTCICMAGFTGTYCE
The assay can be described thus: ELISA: human Notch-3 coated at 2 ug/mL, Nanobody series 25 pM-2000 nM, detection by rabbit anti-VHH and DAMPO, OD 490 nm. As for the experimental part:
as §1

The target of assay [3] is human Notch-2 (R&D Systems Cat #3735-NT-050), Notch-2-Fc fusion (human) (UniProt Q04721). The assay can be described thus: ELISA: human Notch-2 coated at 2 ug/mL, Nanobody series 25 pM-2000 nM, detection by rabbit anti-VHH and DAMPO, OD 490 nm.
Assay [4] deals with T4, rat Jagged-1 (rrJagged-1, R&D Systems Cat #599-JG) (rat, UniProt Q63722 34-1067).
T4 construct: extracellular domain; Bought reagent; also called non-biotinylated Jagged-1; cold-jagged1
The assay can be described thus: ELISA: rat Jagged-1 (rrJagged-1) coated at 2 ug/mL, Nanobody series, detection by mouse anti-Myc tag and DAMPO, OD 490 nm. As for the experimental part:
Two rounds of phage display selection were performed similarly as described above. Binding assays were performed. In short: Maxisorp plate was coated with 100 ul 2 ug/ml of rrJagged-1 (R&D systems) in PBS O/N at 4 C. After washing the plate 4× with PBS the plate was blocked with 4% Marvel in PBS for 30 minutes on shaker. A concentration series of Nanobody (1-1000 nM) was added in 100 ul 2% Marvell/PBS and incubate for 1 hour on shaker. After washing the plate 4× with PBS the Nanobodies were detected with 100 ul 1:5000 Mouse-anti-MycTag in 2% Marvell/PBS for 1 hour and 100 ul 1:5000 DAMPO in 2% Marvell/PBS for 1 hour. After washing the DAMPO was detected with 100 ul OPD, stopped with 50 ul H2SO4 and quantification was performed at 490 nm in a plate reader.

The target in assay [5] is T2, recombinant human Notch-1/Fc Chimera …. The assay can be described thus: ELISA: human Notch-1/Fc coated at 2 ug/mL, Nanobody series, detection by mouse anti-Myc tag and DAMPO, OD 490 nm. As for the experimental part: After washing the plate was blocked using 4% Marvel skimmed milk in PBS for 30 minutes on shaker. A concentration series of Nanobody (1 to 1000 nM) was added in 100 microliter 2% Marvell/PBS and incubated for 1 h on shaker. […] PO was detected with 100 microliter OPD and stopped with 50 microliter H2SO4. Quantification was performed at 490 nm in a plate reader.

Usually EC50 (read off the curve) stands for the concentration giving half of the maximal effect.

Residue numbers refer to the chain shown, from its start.

T1 sequence (Q9NR61 27-529): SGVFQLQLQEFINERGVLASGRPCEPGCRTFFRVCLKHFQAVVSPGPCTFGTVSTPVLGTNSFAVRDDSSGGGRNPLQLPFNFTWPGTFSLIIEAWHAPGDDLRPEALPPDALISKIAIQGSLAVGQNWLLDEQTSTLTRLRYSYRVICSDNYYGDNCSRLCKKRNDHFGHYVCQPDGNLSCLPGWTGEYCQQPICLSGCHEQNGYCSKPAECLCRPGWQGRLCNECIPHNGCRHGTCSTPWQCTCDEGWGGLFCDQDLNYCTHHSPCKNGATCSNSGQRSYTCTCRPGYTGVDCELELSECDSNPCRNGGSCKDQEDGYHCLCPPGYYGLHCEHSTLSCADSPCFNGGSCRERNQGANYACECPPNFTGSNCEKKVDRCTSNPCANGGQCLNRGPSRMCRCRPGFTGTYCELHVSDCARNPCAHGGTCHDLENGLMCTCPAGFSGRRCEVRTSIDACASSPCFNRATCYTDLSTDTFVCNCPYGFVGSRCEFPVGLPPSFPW

B1: 179D12 (VHH)
VHH: EVQLVESGGGLVQAGGSLRLSCVASGDTSEIYDMGWFRQAPGKEREFVSSIHWGGRGTNYTDSVKGRFTISKDNAKNMVYLQMNSLKPEDTAVYYCAATRLIVYTPTGFRQYFDWGQGTQVTVSS
notes: Nanobody against human DLL4; not shown: C-terminal c-myc tag and His6 tag coded by vector pAX50
Regarding B1, the binding result in assay [1] is listed as “binds”.

B2: 179E6 (VHH)
VHH: B1 VHH with V23I, G54R, K65E, T119A
notes: as for B1
Regarding B2, the binding result in assay [1] is recorded as “binds”.

B3: 179A10 (VHH)
VHH: B1 VHH with Y80H
notes: as for B1
As for B3, in assay [1], the binding result was “binds”.

B4: 181E3 (VHH)
VHH: EVQLVESGGGLVQPGGSLRLSCAASGFTFGDYAMNWVRQAPGKGLEWVSSISAGGYSTTYADSVKGRFTISRDNAKNTLYLQMNSLNPEDTAVYYCARGDWRYGSRGQGTQVTVSS
notes: Nanobody against human Notch-2, 'generated as above'
As to B4, the binding result (in assay [2]; with human Notch-3) was “no binding (tested: 2000 nM)” throughout.

B5: 181D2 (VHH)
VHH: EVQLVESGGGLVQPGGSLRLSCAASGRINSMNWYRQAPGKEREWVASITSSGTTIYADSVKGRITISEDNAKNTVYLQMNSLKTEDTGVYYCAANLRNARGSYYGQGTQVTVSS
notes: as for B4
Turning to B5, the binding result (in assay [2]; with human Notch-3) was “no binding (tested: 2000 nM)” in each case. In assay [3], this molecule had an EC50 (read off the curve) of 5 nM.

B6: 179F7 (VHH)
VHH: EVQLVESGGGLVQSGGSLSLSCAASGSVLRINDMGWYRQAPGKTREMVATITRSGVLNYTDSVKGRFTVSRDDAKNTVYLQMSSLKPEDTAVYSCFANIVIRSSGYFNRYWGQGTLVTVSS
notes: as for B1
B6: in assay [1], the binding result is “binds”.

B7: 178A7 (VHH)
VHH: EVQLVESGGGLVQPGGSLRLSCATSGVIFSTAAMGWYRQAPGKSRVLVARMFSDGRTIYAESVKRRFTISRDNAKNTVYLQMNSLEPEDTAVYYCNALQFGAVYWGQGTQVTVSS
notes: Nanobody against rat Jagged-1; not shown: C-terminal c-myc tag and His6 tag coded by vector pAX50
In the case of B7, the half-maximal effective concentration (EC50 (read off the curve)) in assay [4] is about 20 nM.

B8: 178D9 (VHH)
VHH: EVQLVKSGGGLVQPGGSLRLSCAASGSIVSANLIGWYRQAPGKQREGVAFITSGGAINYADSVKGRFTISRDDAKNTVYLQMNSLKPEDTAIYYCNLRQLGNVYWAQGTQVTVSS
notes: as for B7
Regarding B8, the binding result in assay [4] was “binds”.

B9: 180A4 (VHH)
VHH: EVQLVESGGGLVQPGGSLRLSCAASGRTSSPIAMGWFRQAPGKEREFVSGITWSGAYTHYANSVKGRFTISRDSAKNTVYLQMNSLKPEDTAVYYCTTATNSTTGYDYWGQGTQVTVSS
In the case of B9, the “EC50 (read off the curve)” value in assay [5] was about 7 nM.

B10: 180F4 (VHH)
VHH: EVQLVESGGGLVQAGDSLRLSCAVSGGSFSSYTMGWVRQAPGKEREAVASIWRSGGNTYYADSVKGRFTVSRDNAKHTVYLQMNSLKPEDTAVYYCAAASFAPGSRGYDYWGQGTQVTVSS
B10: the “EC50 (read off the curve)” value in assay [5] is about 20 nM.

B11: 181B3 (VHH)
VHH: EVQLVESGGGLVQAGGSLRLSCVVSGSILSINTMDWYRQAPGKQREWFAGLSDGGRANYADSVKDRFTIARDNAKNTVYLQMNSLKPGDTAIYYCAADLWDRGATTGRYWGQGTQVTVSS
notes: detection there was with anti-VHH
Turning to B11, the binding result (in assay [2]; with human Notch-3) was “no binding (tested: 2000 nM)” in each case. The molecule also registered an EC50 (read off the curve) in assay [3] of 2 nM.

B12: 4H2 (VHH)
VHH: EVQLVESGGGLVQAGGSLRLSCATSGFTFSRFDMSWFRQAPGKQREFIATIFSGGDTDYIDSVKGRFTISRDNAKNTVYLQMNSLKPEDTAVYYCCPLGIEYAWGQGTQVTVSS
As to B12, the binding result (in assay [2]; with human Notch-3) was “no binding (tested: 2000 nM)” throughout.

B13: 180C1 (VHH)
VHH: EVQLVESGGDLVQPGGSLRLSCAASRTVFSISDMGWSRQAPGKERELVASISSDNYTVYADAAKGRFTISRDNSKNTVYLEMNSLKPDDTAVYYCRVVDPLRGKLYWGQGTQVTVSS
For the molecule B13, the “EC50 (read off the curve)” value in assay [5] was about 20 nM.

B14: 180B3 (VHH)
VHH: B13 VHH with R26G, I31N, S32N, I51F, S52T, D54G, N55G, Y56N, P100L
Regarding B14, the “EC50 (read off the curve)” value in assay [5] is about 6 nM.

B15: 180F8 (VHH)
VHH: B13 VHH with A23T, A24T, R26G, S32N, E44G, D54E, N55G, Y56T, V58I
notes: Nanobody against human Notch-1
Take B15: in assay [2], the “EC50 (read off the curve)” value lay in the range of 10 to 16 nM. Further, in the assay with human Notch-3, the binding result is reported as “no binding (tested: 2000 nM)”.

B16: 180F10 (VHH)
VHH: B13 VHH with R26A, I31N, S52T, S53T, N55G, Y56N, V58L, T68A, S70Y, P100L
On to B16, for which the concentration for a half-maximal effect (EC50 (read off the curve)) in assay [5] is about 5 nM.

B17: 179F6 (VHH)
VHH: EVQLVESGGGLVQAGGSLRLSCAASGSDFSGFLLGWYRQPPGKQRELIAQTTDGGRTNYGDSVKGRFTISRDNAKNTWYLQMDSLKPEDTGVYYCNTFPLTSWGQGTQVTVSS
notes: as for B1
On to B17, for which, in assay [1], the binding result is “binds”.

B18: 50C4 (VHH)
VHH: EVQLVESGGDLVQPGGSLRLSCAASGFTFSTYYMSWVRQAPGKGLEWVSGIYSDGSNTYYADSVKGRFTISRDNAKNTLYLQMNSLKSEDTAVYYCTRPVVVAGSPVSYEYDYIGQGTQVTVSS
notes: Nanobody against human Notch-3
B18: the “EC50 (read off the curve)” value with human Notch-3 is about 2 nM.

B19: 50H9 (VHH)
VHH: B18 VHH
notes: as for B18
As for B19, the “EC50 (read off the curve)” value with human Notch-3 was about 2 nM.

B20: 181D3 (VHH)
VHH: EVQLVESGGGLVQAGGSLRLSCAASTNVSSFNTMSWYRQSPRKQREWVATITDGDNTHYADSVKGRFTTSRDNAKNLLYLQMNSLKPEDTAVYYCTGWRATSGGSYGQGTQVTVSS
notes: as for B4
Take B20: the binding result (in assay [2]; with human Notch-3) was “no binding (tested: 2000 nM)” each time. For the same molecule, in assay [3], the EC50 (read off the curve) turned out to be 5 nM.
